The target of assay [1] is tagged POLE3-POLE4 complex (GST-Pole4/His-POLE3) (human) (UniProt Q9NR33). Put plainly: pull-down; as a2 but 300 mM NaCl.
Assay [2] addresses T1, GST-tagged POLE3 (human, UniProt Q9NRF9 1-147).
T1 construct: DNA polymerase epsilon subunit POLE3, human, full length; cloned in pGEX 6P-1; also called GST-POLE3; source: E. coli BL21(DE3) pLysS, purified (glutathione-Sepharose 4B)
T1 sequence (looked up): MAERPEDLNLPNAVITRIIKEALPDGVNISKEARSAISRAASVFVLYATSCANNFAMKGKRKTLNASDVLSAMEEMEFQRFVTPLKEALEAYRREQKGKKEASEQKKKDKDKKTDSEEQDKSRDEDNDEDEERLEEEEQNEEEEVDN
The assay is described as follows: pull-down; GST-tagged POLE3 or POLE4 (WT or mutant) on glutathione beads with His-tagged POLE4 or POLE3; 150 mM and 1 M NaCl (Figures S1A, S1B); salt of Figure 1C not told. The conditions noted are these: both partners purified.

In assay [3] the target is T2, His-tagged POLE3 (human, UniProt Q9NRF9 1-147).
T2 construct: DNA polymerase epsilon subunit POLE3, human; cloned via Gateway into pDEST17; also called His-POLE3; source: E. coli BL21(DE3) pLysS, purified (Ni-NTA)
T2 sequence (looked up): T1 sequence (looked up)
Described as above. The settings on record: both partners purified.

In the case of “purified H3-H4 histones (H3.3 variant) (from UniProt P84243 1-136; P62805 1-103) (complex)”, in assay [1], the percent of the interaction at 150 mM NaCl came out at 50%.

B1: His-tagged POLE4 (natural protein, human, UniProt Q9NR33 1-117, looked up)
chain: MAAAAAAGSGTPREEEGPAGEAAASQPQAPTSVPGARLSRLPLARVKALVKADPDVTLAGQEAIFILARAAELFVETIAKDAYCCAQQGKRKTLQRRDLDNAIEAVDEFAFLEGTLD
notes: DNA polymerase epsilon subunit POLE4, human; cloned via Gateway into pDEST17; also called His-POLE4; source: E. coli BL21(DE3) pLysS, purified (Ni-NTA)
In the case of B1, the binding result in assay [2] is “binds”.

B2: GST-tagged POLE4 (natural protein, human, UniProt Q9NR33 1-117, looked up)
chain: B1 chain
notes: DNA polymerase epsilon subunit POLE4, human, full length; cloned in pGEX 6P-1; also called GST-POLE4; source: E. coli BL21(DE3) pLysS, purified (glutathione-Sepharose 4B)
With B2, the binding result in assay [3] is “binds”.
